From US10500249B2, “Compositions and methods for preventing or treating diseases, conditions, or processes characterized by aberrant fibroblast proliferation and extracellular matrix deposition” (MOERAE MATRIX, INC., priority 2014, dated 2019)

Experiments:
Experiment in all cases: Kinase Profiling Assay
Type in all cases: biochemical
Settings in all cases: 100 μM
Itk (h) = target: T1, Itk (h) (Homo sapiens, UniProt Q08881)
T1 construct: purchased Millipore
T1 sequence (Q08881 1-620): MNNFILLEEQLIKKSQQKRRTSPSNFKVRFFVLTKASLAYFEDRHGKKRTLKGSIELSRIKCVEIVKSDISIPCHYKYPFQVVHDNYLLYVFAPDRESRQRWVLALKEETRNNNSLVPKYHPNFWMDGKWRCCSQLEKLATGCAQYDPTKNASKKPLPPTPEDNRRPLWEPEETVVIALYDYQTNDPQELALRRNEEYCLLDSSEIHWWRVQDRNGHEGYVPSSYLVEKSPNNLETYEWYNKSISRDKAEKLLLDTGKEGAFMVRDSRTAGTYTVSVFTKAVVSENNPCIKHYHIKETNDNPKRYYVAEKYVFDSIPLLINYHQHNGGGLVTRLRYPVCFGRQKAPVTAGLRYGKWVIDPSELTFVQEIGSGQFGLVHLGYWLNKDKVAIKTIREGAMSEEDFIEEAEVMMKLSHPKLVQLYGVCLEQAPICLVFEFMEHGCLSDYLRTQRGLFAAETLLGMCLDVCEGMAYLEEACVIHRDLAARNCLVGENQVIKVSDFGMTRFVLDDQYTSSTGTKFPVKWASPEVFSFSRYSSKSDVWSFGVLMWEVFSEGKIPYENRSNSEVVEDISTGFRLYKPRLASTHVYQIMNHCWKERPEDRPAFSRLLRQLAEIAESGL
Method in brief: (§1)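 Measured twice per kinase, activity in presence of MK2 inhibitory peptide was calculated against a 100% activity control after radiometric phosphorylation of a cationic substrate, anionic filter capture and scintillation counting; one of 266 human kinases profiled for specificity.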

Rsk3 (h) = Rsk3 (h) (Homo sapiens, UniProt Q15349)
Chain of Rsk3 (h) (Q15349 whole entry): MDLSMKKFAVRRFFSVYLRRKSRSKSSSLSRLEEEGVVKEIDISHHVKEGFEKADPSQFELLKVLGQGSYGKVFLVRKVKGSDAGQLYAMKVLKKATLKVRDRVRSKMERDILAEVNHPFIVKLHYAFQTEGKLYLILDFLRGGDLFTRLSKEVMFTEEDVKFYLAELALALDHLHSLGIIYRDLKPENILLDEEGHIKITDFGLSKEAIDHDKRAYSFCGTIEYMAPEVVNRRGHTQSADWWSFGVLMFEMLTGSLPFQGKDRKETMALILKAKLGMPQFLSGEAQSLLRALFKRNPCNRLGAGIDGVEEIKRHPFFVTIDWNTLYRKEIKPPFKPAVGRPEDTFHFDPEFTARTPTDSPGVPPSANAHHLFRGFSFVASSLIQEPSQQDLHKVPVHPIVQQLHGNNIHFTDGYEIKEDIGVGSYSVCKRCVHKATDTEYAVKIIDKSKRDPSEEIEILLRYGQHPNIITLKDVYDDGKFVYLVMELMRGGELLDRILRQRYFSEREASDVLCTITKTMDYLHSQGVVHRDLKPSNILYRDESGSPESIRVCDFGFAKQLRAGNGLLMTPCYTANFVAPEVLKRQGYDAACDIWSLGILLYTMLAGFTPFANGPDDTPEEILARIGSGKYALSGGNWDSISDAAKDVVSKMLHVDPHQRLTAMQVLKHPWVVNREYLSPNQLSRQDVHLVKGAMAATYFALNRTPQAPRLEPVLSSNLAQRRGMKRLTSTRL
Method in brief: as §1

PhKγ2 (h) = target: T2, PhKγ2 (h) (Homo sapiens, UniProt P15735)
T2 construct: purchased Millipore
T2 sequence (P15735 1-406): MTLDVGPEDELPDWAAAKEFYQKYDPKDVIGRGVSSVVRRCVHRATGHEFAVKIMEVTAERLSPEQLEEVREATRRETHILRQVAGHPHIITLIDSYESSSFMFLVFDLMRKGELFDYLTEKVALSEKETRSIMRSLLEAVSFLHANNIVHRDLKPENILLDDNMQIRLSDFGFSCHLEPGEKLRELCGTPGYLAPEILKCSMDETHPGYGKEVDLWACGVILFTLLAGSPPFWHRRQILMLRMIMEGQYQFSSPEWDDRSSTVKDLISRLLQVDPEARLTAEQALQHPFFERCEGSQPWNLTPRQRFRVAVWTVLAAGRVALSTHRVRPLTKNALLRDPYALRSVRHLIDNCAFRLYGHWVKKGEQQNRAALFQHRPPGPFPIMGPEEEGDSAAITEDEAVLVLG
Method in brief: as §1

PRK2 (h) = PRK2 (h) (Homo sapiens, UniProt Q16513)
Chain of PRK2 (h) (Q16513 whole entry): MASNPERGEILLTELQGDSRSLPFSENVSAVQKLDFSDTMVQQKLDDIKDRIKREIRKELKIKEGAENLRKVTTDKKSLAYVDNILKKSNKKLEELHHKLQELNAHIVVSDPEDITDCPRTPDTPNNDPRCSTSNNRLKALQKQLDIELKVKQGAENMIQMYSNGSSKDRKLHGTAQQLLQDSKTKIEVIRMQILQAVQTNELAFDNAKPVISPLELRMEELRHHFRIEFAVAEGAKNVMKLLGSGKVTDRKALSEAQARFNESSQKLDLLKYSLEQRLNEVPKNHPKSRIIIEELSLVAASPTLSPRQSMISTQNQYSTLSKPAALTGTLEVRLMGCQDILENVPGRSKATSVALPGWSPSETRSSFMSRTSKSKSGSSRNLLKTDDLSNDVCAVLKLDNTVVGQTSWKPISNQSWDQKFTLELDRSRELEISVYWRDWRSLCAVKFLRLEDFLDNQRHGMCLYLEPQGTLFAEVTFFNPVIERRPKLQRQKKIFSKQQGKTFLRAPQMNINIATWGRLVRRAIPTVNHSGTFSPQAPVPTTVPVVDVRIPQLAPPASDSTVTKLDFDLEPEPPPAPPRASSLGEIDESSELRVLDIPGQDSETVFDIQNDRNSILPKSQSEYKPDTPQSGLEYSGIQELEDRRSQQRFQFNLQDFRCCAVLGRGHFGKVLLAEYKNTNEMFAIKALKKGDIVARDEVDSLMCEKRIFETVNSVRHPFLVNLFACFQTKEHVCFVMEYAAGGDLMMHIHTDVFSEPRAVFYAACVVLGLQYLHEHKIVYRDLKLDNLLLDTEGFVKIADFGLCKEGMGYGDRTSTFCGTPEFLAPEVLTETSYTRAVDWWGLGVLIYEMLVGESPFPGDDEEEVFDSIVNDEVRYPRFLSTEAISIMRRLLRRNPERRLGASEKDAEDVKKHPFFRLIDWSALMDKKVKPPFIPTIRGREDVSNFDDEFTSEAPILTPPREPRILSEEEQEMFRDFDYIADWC
Method in brief: as §1

VRK2 (h) = VRK2 (h) (Homo sapiens, UniProt Q86Y07)
Chain of VRK2 (h) (Q86Y07 whole entry): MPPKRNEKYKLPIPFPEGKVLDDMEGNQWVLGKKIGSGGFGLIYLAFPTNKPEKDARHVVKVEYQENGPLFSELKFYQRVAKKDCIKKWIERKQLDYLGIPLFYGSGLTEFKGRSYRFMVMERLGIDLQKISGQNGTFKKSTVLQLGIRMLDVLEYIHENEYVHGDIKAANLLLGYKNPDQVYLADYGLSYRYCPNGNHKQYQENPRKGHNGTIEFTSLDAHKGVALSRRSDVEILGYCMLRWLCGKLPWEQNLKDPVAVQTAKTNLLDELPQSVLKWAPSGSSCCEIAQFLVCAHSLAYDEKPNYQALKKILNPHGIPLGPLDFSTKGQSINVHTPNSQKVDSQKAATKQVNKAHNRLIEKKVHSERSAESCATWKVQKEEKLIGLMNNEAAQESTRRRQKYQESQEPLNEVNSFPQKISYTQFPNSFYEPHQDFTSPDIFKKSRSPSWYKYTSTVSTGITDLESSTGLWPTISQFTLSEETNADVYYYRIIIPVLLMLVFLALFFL
Method in brief: as §1

Pim-1 (h) = target: T3, Pim-1 (h) (Homo sapiens, UniProt P11309)
T3 construct: purchased Millipore
T3 sequence (P11309 whole entry): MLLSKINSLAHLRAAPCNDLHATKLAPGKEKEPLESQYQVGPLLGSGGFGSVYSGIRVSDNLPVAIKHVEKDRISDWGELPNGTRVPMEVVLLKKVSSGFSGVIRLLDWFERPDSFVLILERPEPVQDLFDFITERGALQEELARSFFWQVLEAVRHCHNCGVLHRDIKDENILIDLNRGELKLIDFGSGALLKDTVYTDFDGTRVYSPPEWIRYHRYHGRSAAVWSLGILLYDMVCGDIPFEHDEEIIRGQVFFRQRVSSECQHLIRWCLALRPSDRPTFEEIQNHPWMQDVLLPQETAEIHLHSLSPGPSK
Method in brief: as §1

ZAP-70 (h) = target: T4, ZAP-70 (h) (Homo sapiens, UniProt P43403)
T4 sequence (P43403 1-619): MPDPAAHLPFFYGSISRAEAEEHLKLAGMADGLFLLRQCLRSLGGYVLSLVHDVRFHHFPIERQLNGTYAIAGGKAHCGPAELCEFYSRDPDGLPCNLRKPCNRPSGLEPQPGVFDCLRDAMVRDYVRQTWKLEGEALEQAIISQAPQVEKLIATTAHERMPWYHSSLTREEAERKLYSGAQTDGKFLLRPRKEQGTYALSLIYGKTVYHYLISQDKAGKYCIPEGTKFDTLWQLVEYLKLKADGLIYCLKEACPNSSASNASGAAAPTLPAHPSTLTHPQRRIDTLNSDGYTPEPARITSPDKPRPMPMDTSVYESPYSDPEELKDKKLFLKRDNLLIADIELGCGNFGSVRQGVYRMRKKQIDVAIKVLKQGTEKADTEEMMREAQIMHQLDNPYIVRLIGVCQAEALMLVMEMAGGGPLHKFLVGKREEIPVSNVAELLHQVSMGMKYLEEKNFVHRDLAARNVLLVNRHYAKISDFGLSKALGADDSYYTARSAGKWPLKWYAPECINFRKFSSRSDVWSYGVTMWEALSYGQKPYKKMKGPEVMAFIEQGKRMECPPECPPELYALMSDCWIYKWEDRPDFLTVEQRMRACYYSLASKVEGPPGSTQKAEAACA
Method in brief: as §1

Bmx (h) = target: T5, Bmx (h) (Homo sapiens, UniProt P51813)
T5 sequence (P51813 1-675): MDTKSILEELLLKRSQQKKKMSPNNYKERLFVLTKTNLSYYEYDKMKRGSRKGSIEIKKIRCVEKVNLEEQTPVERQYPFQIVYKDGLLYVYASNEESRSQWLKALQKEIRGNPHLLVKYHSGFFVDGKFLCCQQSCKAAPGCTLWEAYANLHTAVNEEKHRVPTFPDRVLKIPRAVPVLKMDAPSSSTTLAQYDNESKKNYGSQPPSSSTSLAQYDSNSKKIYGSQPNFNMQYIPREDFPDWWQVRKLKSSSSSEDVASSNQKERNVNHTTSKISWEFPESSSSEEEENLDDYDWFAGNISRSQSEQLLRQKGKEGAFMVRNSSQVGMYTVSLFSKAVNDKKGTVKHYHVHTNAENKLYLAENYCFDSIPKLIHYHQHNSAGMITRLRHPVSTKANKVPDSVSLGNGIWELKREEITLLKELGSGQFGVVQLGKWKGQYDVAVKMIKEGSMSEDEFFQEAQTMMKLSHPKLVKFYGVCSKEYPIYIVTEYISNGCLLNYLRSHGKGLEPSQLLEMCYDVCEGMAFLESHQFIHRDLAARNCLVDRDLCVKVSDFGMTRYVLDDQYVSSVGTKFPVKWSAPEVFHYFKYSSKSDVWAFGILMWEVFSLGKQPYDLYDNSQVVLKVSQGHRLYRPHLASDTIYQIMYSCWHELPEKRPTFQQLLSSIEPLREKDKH
Method in brief: as §1

Row | Sequence | % activity (Itk (h)) [%] | % activity (Rsk3 (h)) [%] | % activity (PhKγ2 (h)) [%] | % activity (PRK2 (h)) [%] | % activity (VRK2 (h)) [%] | % activity (Pim-1 (h)) [%] | % activity (ZAP-70 (h)) [%] | % activity (Bmx (h)) [%]
1 | FAKLAARLYRKALARQLGVAA [MMI-0300] | 77 | 76 | 46 | 33 | 161 | 8 | 75 | 
2 | HRRIKAWLKKIKALARQLGVAA (Mammalian) [MMI-0500] | 7 | 23 | 16 | 7 | 169 | 0 | 1 | 45
3 | YARAAARQARAKALNRQLGVA (Mammalian) [MMI-0200] | 98 |  | 86 | 74 |  | 18 | 58 | 76
4 | KAFAKLAARLYRKALARQLGVAA [MMI-0400] | 63 | 71 | 38 | 27 | 185 | 7 | 33 | 26
